The numbers were not newly measured in publication PMC3134471, which cites them from elsewhere.

pKd: −log10 of the molar value.

The series deals with luteinizing hormone receptor (Homo sapiens) (UniProt P22888).
Sequence of UniProt P22888 (P22888 27-699): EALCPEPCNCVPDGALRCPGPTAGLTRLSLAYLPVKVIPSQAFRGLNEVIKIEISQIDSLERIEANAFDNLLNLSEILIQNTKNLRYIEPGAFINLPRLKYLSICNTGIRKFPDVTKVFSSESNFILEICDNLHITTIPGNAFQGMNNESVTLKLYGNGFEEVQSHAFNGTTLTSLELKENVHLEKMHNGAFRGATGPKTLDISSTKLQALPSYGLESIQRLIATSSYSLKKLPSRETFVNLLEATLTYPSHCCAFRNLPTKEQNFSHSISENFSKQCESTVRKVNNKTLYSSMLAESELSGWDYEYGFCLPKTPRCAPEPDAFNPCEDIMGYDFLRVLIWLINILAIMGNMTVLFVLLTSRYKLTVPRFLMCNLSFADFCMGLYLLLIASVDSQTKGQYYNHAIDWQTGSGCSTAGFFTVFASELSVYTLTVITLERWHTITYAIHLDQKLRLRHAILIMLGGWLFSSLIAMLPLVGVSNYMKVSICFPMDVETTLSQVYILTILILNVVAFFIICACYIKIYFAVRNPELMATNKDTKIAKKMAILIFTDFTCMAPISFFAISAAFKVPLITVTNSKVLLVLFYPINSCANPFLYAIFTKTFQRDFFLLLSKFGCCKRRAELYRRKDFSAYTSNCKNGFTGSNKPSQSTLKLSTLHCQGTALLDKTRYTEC

Broadly, the pKd is −log10 of the Kd, conventionally taken in molar units. In the case of “human chorionic gonadotropin (from UniProt P01215)”, the negative-log Kd (pKd) is 9.52.
